The text below walks through data of doi:10.1101/829150.

The assay has as its target Chicken gizzard actin (chicken) (UniProt P63270). Nature of the assay: nanopore sensing.

“Chicken gizzard actin (from UniProt P63270 1-376) (natural protein)” displayed a filamentous fraction, initial of 17% and a filamentous fraction, maximum of 75%.
